# Experimental data as given in IntAct's records for PubMed 17947231.
# B1: Calvin cycle protein CP12-2, chloroplastic (Arabidopsis thaliana (Mouse-ear cress)), Q9LZP9 (parent)
# chain: MATIATGLNIATQRVFVTSENRPVCLAGPVHLNNSWNLGSRTTNRMMKLQPIKAAPEGGISDVVEKSIKEAQETCAGDPVSGECVAAWDEVEELSAAASHARDKKKADGSDPLEEYCKDNPETNECRTYDN
# partner: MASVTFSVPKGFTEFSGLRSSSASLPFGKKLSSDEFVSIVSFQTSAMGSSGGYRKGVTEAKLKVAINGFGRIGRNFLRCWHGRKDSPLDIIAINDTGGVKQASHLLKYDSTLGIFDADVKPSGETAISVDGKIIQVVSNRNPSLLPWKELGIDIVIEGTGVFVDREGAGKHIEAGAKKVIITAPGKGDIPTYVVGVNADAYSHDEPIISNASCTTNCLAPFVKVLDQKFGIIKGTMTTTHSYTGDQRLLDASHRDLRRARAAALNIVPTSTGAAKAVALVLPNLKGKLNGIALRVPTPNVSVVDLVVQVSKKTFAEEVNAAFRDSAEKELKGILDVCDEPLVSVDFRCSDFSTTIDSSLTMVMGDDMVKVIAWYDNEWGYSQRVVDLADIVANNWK
# Variants of: B1
# Conditions: with GAPA1, P25856
row,effect of a mutation on the interaction,Variant
1,disrupting interaction,MATIATGLNIATQRVFVTSENRPVCLAGPVHLNNSWNLGSRTTNRMMKLQPIKAAPEGGISDVVEKSIKEAQETCAGDPVSGECVAAWDEVEELSAAASHARDKKKADGSDPLEEYCKDNPETNESRTYDN [C126S]
